The results in this text go back to patent publication US20200207829A1, “CHIMERIC RECEPTORS” (Oxford University Innovation Limited, priority 2017, published 2020).

Some results are limits rather than exact numbers.

What all share (test): cell-based or functional assay
Assay [1] deals with dCas9(N/C)-synBDKRB2.
In assay [2] the target is TMt-NES-dCas9VP64.
The target of assay [3] is TMt-dCas9(N/C)VP64.
The target in assay [4] is VEGFR2:TEV(N)-NES-dCas9(N)/VEGFR1:TEV(C)-NLS-dCas9(C)VP64 heterodimer, both with TCS(QG).
The target in assay [5] is dCas9(N/C)-synVEGFR1/2 (heterodimer of dCas9(N)-synVEGFR2 with TCS(QL) and dCas9(C)-synVEGFR1 with TCS(QG)).
Assay [6] has as its target dCas9(N/C)-synVEGFR1/2RI.

Sequence of VEGFA121 (P15692 other isoform, or with tags, fused parts or gaps limits assumed): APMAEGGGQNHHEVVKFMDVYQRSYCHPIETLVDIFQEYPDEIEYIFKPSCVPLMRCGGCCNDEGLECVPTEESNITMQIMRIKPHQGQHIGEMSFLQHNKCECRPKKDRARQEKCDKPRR

In assay [1], “Bradykinin (from UniProt P01042 381-389) (peptide)” registered a fold increase in EYFP output activation score (HTLA cells) above 900 fold and a half-maximal effective agonist concentration (EC50), EYFP reporter dose-response, 0.01 nM-10 µM bradykinin of 603 nM.

For “TEV protease (from UniProt P04517 2038-2273) (enzyme)”, in assay [2], the fold increase in reporter activation score upon TEV expression came to 35 fold. For the same substance, the fold increase in output reporter activation score in assay [3] was 234 fold.

Regarding “VEGFA121 (from UniProt P15692 181-395) (ligand)”, the EYFP activation score, VEGFA121-dependent ON/OFF fold differential (HEK-293T reporter assay) in assay [4] amounted to 5.5 fold. In assay [5], the ASCL1 mRNA levels, RT-qPCR (FIG. 2F legend) is 50 fold; the ASCL1 mRNA levels, RT-qPCR, relative to the no-agonist condition turned out to be 48.3 fold; the TNFα mRNA, RT-qPCR, relative to no-agonist conditions was 18 fold; the TSP-1 mRNA, RT-qPCR, relative to no-agonist conditions amounted to 16.2 fold. In assay [5], this substance showed a fold increase in EYFP activation score (FIG. 2D) of 1180 fold and a fold increase in EYFP activation score (HEK-293T reporter assay) of 1000 fold. The substance also returned an EYFP target gene induction with VEGFA121 and rapamycin together (AND gate, with FRB-VP64) in assay [6] above 90 fold.
